{"source": "paper PMC9757077", "about": "“The B. subtilis Rok protein is an atypical H-NS-like protein irresponsive to physico-chemical cues”", "key": {"[1]": {"biological_target": "Rok with a C-terminal His-tag (Rok-6xHis) (B. subtilis 168) (UniProt O34857)"}, "Rok [2]": {"biological_target": "T1, Rok (Bacillus subtilis 168, UniProt O34857 1-191)", "T1 sequence": "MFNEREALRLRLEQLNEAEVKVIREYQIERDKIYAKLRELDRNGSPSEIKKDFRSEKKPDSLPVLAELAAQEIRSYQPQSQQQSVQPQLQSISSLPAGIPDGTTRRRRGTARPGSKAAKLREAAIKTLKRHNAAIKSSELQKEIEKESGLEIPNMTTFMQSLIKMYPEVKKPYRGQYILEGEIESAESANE", "assay": "TPM", "settings": "Hill n=6.5 ± 0.4; 50 mM KCl; MST: 10 mM Tris-HCl pH 8, 150 mM KCl, 5% glycerol, 0.05% Tween20, 0.08 mg/ml acetylated BSA, RT, 40 nM DNA; TPM: 50 mM KCl; bridging: 50 mM KCl …"}, "[3]": {"test_system": "Rok Δ75-96 (Bacillus subtilis 168)", "assay": "TPM", "settings": "Hill n=5.7 ± 0.9; 50 mM KCl; MST: 10 mM Tris-HCl pH 8, 150 mM KCl, 5% glycerol, 0.05% Tween20, 0.08 mg/ml acetylated BSA, RT, 40 nM DNA; TPM: 50 mM KCl; bridging: 50 mM KCl …"}, "Rok [4]": {"biological_target": "T1, Rok", "assay": "bridging pull-down; 0.27 uM Rok, bait N1; minimal bridged length; MST: 10 mM Tris-HCl pH 8, 150 mM KCl, 5% glycerol, 0.05% Tween20, 0.08 mg/ml acetylated BSA, RT, 40 nM DNA; TPM: 50 mM KCl; bridging: 50 mM KCl, 25 C", "settings": "protein: recombinant; chain copies: 2; label: 32P; blunt"}, "Rok [5]": {"biological_target": "T1, Rok", "assay": "MST; 10 mM MgCl2; MST: 10 mM Tris-HCl pH 8, 150 mM KCl, 5% glycerol, 0.05% Tween20, 0.08 mg/ml acetylated BSA, RT, 40 nM DNA; TPM: 50 mM KCl; bridging: 50 mM KCl, 25 C", "settings": "protein: recombinant; chain copies: 2; label: 5'-Cy5 top strand; blunt"}, "Rok [6]": {"biological_target": "T1, Rok", "assay": "MST; no MgCl2; McGhee-von Hippel n=30 bp; MST: 10 mM Tris-HCl pH 8, 150 mM KCl, 5% glycerol, 0.05% Tween20, 0.08 mg/ml acetylated BSA, RT, 40 nM DNA; TPM: 50 mM KCl; bridging: 50 mM KCl, 25 C", "settings": "protein: recombinant; chain copies: 2; label: 5'-Cy5 top strand; blunt"}, "Rok [7]": {"biological_target": "T1, Rok", "assay": "MST; up to 35 mM MgCl2; MST: 10 mM Tris-HCl pH 8, 150 mM KCl, 5% glycerol, 0.05% Tween20, 0.08 mg/ml acetylated BSA, RT, 40 nM DNA; TPM: 50 mM KCl; bridging: 50 mM KCl, 25 C", "settings": "protein: recombinant; chain copies: 2; label: 5'-Cy5 top strand; blunt"}}}
{"molecule": "small Rok (sRok) (natural protein)", "values": [{"measurement": "DNA recovery (%) in the DNA bridging assay with different Rok:sRok ratios (total protein 0.5 uM, 50 mM KCl + 1 mM MgCl2, 25°C); value at 20% sRok; Rok here is the untagged protein", "setting": "[1]", "result": 40, "unit": "%"}]}
{"molecule": "685 bp AT-rich (32% GC) DNA", "values": [{"measurement": "K half", "setting": "Rok [2]", "result": 6.1, "unit": "nM"}, {"measurement": "K half", "setting": "[3]", "result": 8.8, "unit": "nM"}]}
{"molecule": "100 bp prey (dsDNA) DNA 1: GATATATGGACTCTTAGTGGCAAATATATAATGTATAAGTTCTGGAGTAGTATGGTAATAACTATTTTATTTTCGATAGCTTGAATGTTTATTTTCCCAG DNA 2: CTGGGAAAATAAACATTCAAGCTATCGAAAATAAAATAGTTATTACCATACTACTCCAGAACTTATACATTATATATTTGCCACTAAGAGTCCATATATC", "values": [{"measurement": "binding result", "setting": "Rok [4]", "result": "binds"}]}
{"molecule": "MST aspecific 78 bp (dsDNA) DNA 1: CGGCGCAAATTCGTGACCAGTTGCATCAGCTGCGTGAGCTGTTTATCGCAGCATCGTAACAGGATAGTGAAGAAGACT DNA 2: AGTCTTCTTCACTATCCTGTTACGATGCTGCGATAAACAGCTCACGCAGCTGATGCAACTGGTCACGAATTTGCGCCG", "values": [{"measurement": "Kd", "setting": "Rok [5]", "result": "34.6 ± 8", "unit": "µM"}, {"measurement": "Kd", "setting": "Rok [6]", "result": "79.4 ± 20", "unit": "µM"}]}
{"molecule": "MST specific 78 bp (TACTA) (dsDNA) DNA 1: CGGCGCAAATTCGTGACCAGTTGCATCAGCTACTAGAGCTGTTTATCGCAGCATCGTAACAGGATAGTGAAGAAGACT DNA 2: AGTCTTCTTCACTATCCTGTTACGATGCTGCGATAAACAGCTCTAGTAGCTGATGCAACTGGTCACGAATTTGCGCCG", "values": [{"measurement": "Kd", "setting": "Rok [7]", "result": "~100", "unit": "µM"}]}
